From IntAct's records for PubMed 9418902

B1: Tumor necrosis factor receptor superfamily member 4 (Mus musculus), P47741 (parent)
chain: MYVWVQQPTALLLLALTLGVTARRLNCVKHTYPSGHKCCRECQPGHGMVSRCDHTRDTLCHPCETGFYNEAVNYDTCKQCTQCNHRSGSELKQNCTPTQDTVCRCRPGTQPRQDSGYKLGVDCVPCPPGHFSPGNNQACKPWTNCTLSGKQTRHPASDSLDAVCEDRSLLATLLWETQRPTFRPTTVQSTTVWPRTSELPSPPTLVTPEGPAFAVLLGLGLGLLAPLTVLLALYLLRKAWRLPNTPKPCWGNSFRTPIQEEHTDAHFTLAKI
partner: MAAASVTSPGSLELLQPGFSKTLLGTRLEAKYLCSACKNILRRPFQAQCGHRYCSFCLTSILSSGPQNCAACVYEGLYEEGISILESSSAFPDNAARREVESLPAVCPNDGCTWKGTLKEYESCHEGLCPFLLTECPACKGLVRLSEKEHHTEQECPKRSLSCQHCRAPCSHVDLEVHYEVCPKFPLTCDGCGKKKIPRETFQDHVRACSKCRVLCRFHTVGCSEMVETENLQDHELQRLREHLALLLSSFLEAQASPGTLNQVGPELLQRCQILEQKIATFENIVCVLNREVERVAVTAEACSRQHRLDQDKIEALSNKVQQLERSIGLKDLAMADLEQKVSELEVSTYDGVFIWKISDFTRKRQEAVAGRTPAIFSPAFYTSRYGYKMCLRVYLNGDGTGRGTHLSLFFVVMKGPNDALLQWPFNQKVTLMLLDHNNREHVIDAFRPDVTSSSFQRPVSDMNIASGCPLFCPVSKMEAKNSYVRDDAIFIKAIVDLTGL
B2: Tumor necrosis factor receptor superfamily member 4 (Mus musculus), P47741 (parent)
chain: B1 chain
partner: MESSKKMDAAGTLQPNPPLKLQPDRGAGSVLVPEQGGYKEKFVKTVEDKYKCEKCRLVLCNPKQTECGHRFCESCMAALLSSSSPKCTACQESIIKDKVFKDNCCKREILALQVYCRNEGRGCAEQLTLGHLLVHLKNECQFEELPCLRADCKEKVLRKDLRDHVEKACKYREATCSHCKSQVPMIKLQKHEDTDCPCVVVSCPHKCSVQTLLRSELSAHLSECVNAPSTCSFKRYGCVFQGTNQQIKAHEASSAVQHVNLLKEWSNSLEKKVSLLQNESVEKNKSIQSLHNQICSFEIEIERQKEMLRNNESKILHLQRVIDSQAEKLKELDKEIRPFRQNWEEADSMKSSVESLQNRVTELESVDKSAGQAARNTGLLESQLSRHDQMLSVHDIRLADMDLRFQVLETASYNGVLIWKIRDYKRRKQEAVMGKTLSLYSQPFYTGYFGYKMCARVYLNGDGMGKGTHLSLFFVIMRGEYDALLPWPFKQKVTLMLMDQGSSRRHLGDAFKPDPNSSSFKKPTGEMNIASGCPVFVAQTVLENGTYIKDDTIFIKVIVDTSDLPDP

Variants of: B1
Details: with traf2_mouse Traf2, P39429

Variant | effect of a mutation on the interaction
MYVWVQQPTALLLLALTLGVTARRLNCVKHTYPSGHKCCRECQPGHGMVSRCDHTRDTLCHPCETGFYNEAVNYDTCKQCTQCNHRSGSELKQNCTPTQDTVCRCRPGTQPRQDSGYKLGVDCVPCPPGHFSPGNNQACKPWTNCTLSGKQTRHPASDSLDAVCEDRSLLATLLWETQRPTFRPTTVQSTTVWPRTSELPSPPTLVTPEGPAFAVLLGLGLGLLAPLTVLLALYLLRKAWRLPNTPKPCWGNSFRTPIQEEAAAAHFTLAKI [H262A;T263A;D264A] | decreasing interaction strength
MYVWVQQPTALLLLALTLGVTARRLNCVKHTYPSGHKCCRECQPGHGMVSRCDHTRDTLCHPCETGFYNEAVNYDTCKQCTQCNHRSGSELKQNCTPTQDTVCRCRPGTQPRQDSGYKLGVDCVPCPPGHFSPGNNQACKPWTNCTLSGKQTRHPASDSLDAVCEDRSLLATLLWETQRPTFRPTTVQSTTVWPRTSELPSPPTLVTPEGPAFAVLLGLGLGLLAPLTVLLALYLLRKAWRLPNTPKPCWGNSFRTPIAAAHTDAHFTLAKI [Q259A;E260A;E261A] | disrupting interaction strength
MYVWVQQPTALLLLALTLGVTARRLNCVKHTYPSGHKCCRECQPGHGMVSRCDHTRDTLCHPCETGFYNEAVNYDTCKQCTQCNHRSGSELKQNCTPTQDTVCRCRPGTQPRQDSGYKLGVDCVPCPPGHFSPGNNQACKPWTNCTLSGKQTRHPASDSLDAVCEDRSLLATLLWETQRPTFRPTTVQSTTVWPRTSELPSPPTLVTPEGPAFAVLLGLGLGLLAPLTVLLALYLLRKAWRLPNTPKPCWGNSFRAAAQEEHTDAHFTLAKI [T256A;P257A;I258A] | disrupting interaction strength

Variants of: B2
Details: with traf3_mouse Traf3, Q60803

Variant | effect of a mutation on the interaction
MYVWVQQPTALLLLALTLGVTARRLNCVKHTYPSGHKCCRECQPGHGMVSRCDHTRDTLCHPCETGFYNEAVNYDTCKQCTQCNHRSGSELKQNCTPTQDTVCRCRPGTQPRQDSGYKLGVDCVPCPPGHFSPGNNQACKPWTNCTLSGKQTRHPASDSLDAVCEDRSLLATLLWETQRPTFRPTTVQSTTVWPRTSELPSPPTLVTPEGPAFAVLLGLGLGLLAPLTVLLALYLLRKAWRLPNTPKPCWGNSFRAAAQEEHTDAHFTLAKI [T256A;P257A;I258A] | disrupting interaction strength
MYVWVQQPTALLLLALTLGVTARRLNCVKHTYPSGHKCCRECQPGHGMVSRCDHTRDTLCHPCETGFYNEAVNYDTCKQCTQCNHRSGSELKQNCTPTQDTVCRCRPGTQPRQDSGYKLGVDCVPCPPGHFSPGNNQACKPWTNCTLSGKQTRHPASDSLDAVCEDRSLLATLLWETQRPTFRPTTVQSTTVWPRTSELPSPPTLVTPEGPAFAVLLGLGLGLLAPLTVLLALYLLRKAWRLPNTPKPCWGNSFRTPIQEEAAAAHFTLAKI [H262A;T263A;D264A] | decreasing interaction strength
MYVWVQQPTALLLLALTLGVTARRLNCVKHTYPSGHKCCRECQPGHGMVSRCDHTRDTLCHPCETGFYNEAVNYDTCKQCTQCNHRSGSELKQNCTPTQDTVCRCRPGTQPRQDSGYKLGVDCVPCPPGHFSPGNNQACKPWTNCTLSGKQTRHPASDSLDAVCEDRSLLATLLWETQRPTFRPTTVQSTTVWPRTSELPSPPTLVTPEGPAFAVLLGLGLGLLAPLTVLLALYLLRKAWRLPNTPKPCWGNSFRTPIAAAHTDAHFTLAKI [Q259A;E260A;E261A] | disrupting interaction strength
